The source of these data is PMC12354777 (Nature Communications, 2025).

Residue numbers refer to the chain shown, from its start. Names and notes keep the numbering of the source.

The chains are these.
T1: HR1C peptide of SARS-CoV-2 (residues 937-955), His6-tagged (SARS-CoV-2, UniProt P0DTC2)
T1 chain: SLSSTASALGKLQDVVNQN

B1: 3D1 mutant Y93A (light chain, CDRL3) (antibody, V domains shown)
VH: QVQLVQSGSELKKPGASVRISCKASGYSFTSLSMNWVRQAPGQGLEWMGWISTKSGDPTYAQAFTGRFVFSLDTSVNTAYLQINSLEAGDTAVYYCARGQPPVGWTFDYWGQGTLVTVSS
VL: QSALTQPPSASGSPGQSVTISCTGTSSDVGGYNYVSWYQQHPGKAPKLIIYEVSKRPSGVPDRFSGSKSGNTASLTVSGLQAEDEADYYCSSATSSSTLVFGGGTKLTVL
B2: 3D1 mutant N35A (heavy chain) (antibody, V domains shown)
VH: B1 VH with N35A
VL: B1 VL with A93Y
B3: 3D1 mutant W105A (heavy chain, CDRH3) (antibody, V domains shown)
VH: B1 VH with W105A
VL: B1 VL with A93Y

The assay addresses T1, HR1C peptide of SARS-CoV-2 (residues …). Briefly: BLI.
As for B1, the binding result was “no binding”.
The result for B2 reads “no binding”; that for B3, “no binding”.
